Results from the NTF2 design screens of Basanta et al. (2020).

Experiment: protease stability score; higher = more stable; yeast display proteolysis, trypsin and chymotrypsin;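 note: log10 excess protease needed over predicted unfolded state with 0 meaning unfolded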
“DEKEHEDVAQEAVHAVQSGDPKQMVEMADPNARVVVGDKTLHGHDRIEEMVKHLRKRADHVRIIDVQVQGDKVVIRFQVVVDGRTYDVYIDLRVHNGEAKEIRFDPRRQKEMHG” gave a protease stability score of 0.758. Sequence “DEHKLKEFATRIMEAWEQGDPRKLEELMDPNARYIVGDKTLHGREEAKKRMEEFRKNVDHVEFTSVRAQNGHISITFVANVNGERETRVVDIKVDNGRVKNMDIKHK” has a protease stability score of 0.7. Sequence “EDDAITRWEELERQQETGNEEKAQEMVDPNVKMRYGDDNFHGREEYRKLVHKIRKNWREDVKDVRFEDHGEEIKVEYRVHQDINGKPVNADVTAEAQMSNGRLKKFVLRFSETQEKEIES” has a protease stability score of 0.351. “DEEQIKDLLERLMRAQQHGDPDRMANYLDENVRVRIGEKDISGREQYKDWNQEQVERIDHFQVHHIEVQGDKAKIDMEMKVDGKRFRFTVRMHIRDGRIDEFRFDPTVQRKIET” showed a protease stability score of 0.97. In the case of “DERQNSQLHRQIEQAKQGDEEKVRQQMDENARARYGDKEVHGRTELARQQVRQWNEAKIDIEFKRVSAHENEIRVNVVMQFDVDGRPNRSTWTFKVRFHNGTIKQINAEIDPDEWDTLLK”, the protease stability score is reported as 0.506. Sequence “DEDAAKDYETIVKQQESGDEDKVRQNVDPNAKWHIGEKKVHGRESLANEVHRVRRQMNERMEVKTVKDQGDKANVEMRVVQQHNGEPKDYTMQVDVHAHNGRLREVKATEQS” has a protease stability score of -0.388. In the case of “DDSDVNQAQTIWKHWQQGNFREIAKNADPNVKINVGDKQYHGREEYESDMQEHRNQIRVKITSMSQNKNGDKAVVDAVIVNEENGEPEEKRFVWYIKAHNGRIVSFRVEDEK”, the protease stability score is reported as 0.176. Work on “DDKDAKRLLTLWHQIEEGNPEEVQKMMDENVHVSIGDKEVHGREEDARQRKEEVDSMRVSLKIDHYSDNNGRIVVDATQENETNGKPSTKRFVIEARMDNGTLKRLQIEDDK” yielded a protease stability score of 0.097. “DEEEVERVAKTAMEAMKKGNEEELKKLLKEGVEYIMGDNKVHGPEEIQKMVQLVLRVGMRIEFKELRVEGDTATTNVDYQVGDKKVTVQAHAELKGGRIDRVQIDFSDEAKKHVKHG” showed a protease stability score of 1.17. Work on “DENHLKEVAEEYNKVLNNGDPDKHVEQVDKDVDVKVGDKTYHGREDDKKWMEHFVERVDHLEVKRVEVRGDKVRIDMVVNVNGDNVKMQVNINLHNGRVQEVSVNPDQLEKFKQ” yielded a protease stability score of 0.22. Sequence “DEDVERIIKRFLTALTHNDPEQAAQNVDPNAQVRIGDKSVHGKDQLKNRIEEEVKEMRVDIKHMSVDVKGNKASIHLHFVIQTNGKPDEKTAVMEVVVQGDKIHELELHDTK” has a protease stability score of 0.725. For “DEEAFKVMEKLEEDIHTGSEENIEKLFDPNARLRVGDHVVDGRHNIAKHVRDVRESARLEFSVRTYDMQGEKVRLDVTWRREHNGQPESATATVVAEIHNGRIVSVTVDERK”, the protease stability score was 0.801. In the case of “DDEAQRVFEDWLENVKKGDEDHAVQLADPNADFVIGDKTYHGREQLKREIKHERDRLRREMRIQDFDDQPPRIDIKFEFTNQHNGKPSSDTAVMKLQMHNGDVQALVVTQHR”, the protease stability score is reported as -0.302. “DEQHDREMVSRLKTALQHGDPDELVELADENARVEIGEKTVHGRHQIREQAKRWRERVDHVQIEDVDVQNGQARVQMTVDHNGRTRKEVVQMTAHNGTVESLRFQSQ” gave a protease stability score of -0.216. With “DEENRKQFEEIVRVWNKGDEKRFNNLFDPNARFRYGDKEYKGNQSLMNWWRHLKKQARVEIDVKEVHVDGDKVHAHFRVTFDINGRPETQDVDVVLTVQNGRAKNFDNRIDPEFMRRVQS” the protease stability score was 0.141. “DEHDTEVAERALNDLKTGDPDKVTEMADKHVKYVVGEKRIQGRETYAKTVEKERDEIRVDWSVHNIQVHNGKLDVSAEFRFTVNGQPNSDSARWEFTLRNGKIQEVVMKVSDRFLKQMRS” gave a protease stability score of -0.15. “DEKDVERVLEAIKTNNRSEIRNQADPNARARVGDKKLHGMEDAAHKFAKFLDRADNHEVKDVSVDGDRATMDVKVRVDGEDVRFVVKFQVKNGRITHLEVEATSDHVDRRAEQAMK” showed a protease stability score of 0.581. Sequence “DEDREQEMLEKMVQIWEEGDEEKMVRLADPNVTVRVGDKNVHGRKHLREELQKERKQVDHFYVRHITIHNGTVNLDVEYNHNGQREQATVIAKVHDGRIKELSVHSS” has a protease stability score of -0.204. Sequence “DQRDVEKIATKLSEVVRTGDPHEFAKMADPNAKVEVGDKSWRGHEEIRDWLKQITDEADSIHVDSVTAQGDKIDMTITVDFNGKRVQFDIKIQMENGRIKKMKLDPDQQRKLER” has a protease stability score of 1.04. In the case of “EEHVMRIVTNQLEAIKHGDEDRVRDLADPNARFHVGDKSIHGMEKYANDLRSEMEHMQVEFNLQSVTVEGDKVVITFEAQFNQNGKPKNYREVFRVEAQGDKIKDYRQERKD”, the protease stability score is reported as 0.001.
